Assay: yeast display, Sf9 membrane polyspecificity reagent, FACS + sequencing; frameworks hold sequencing errors
Procedure, shortened: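 Sorting gates, low and high (top ~1%), were placed on anti-HA fluorescence to track expression and on streptavidin fluorescence to track reagent binding. A clone's polyreactivity label is taken from the gate it came out of. The reagent was 10% biotinylated, detergent-solubilized Sf9 membrane, applied for 1 hour at 4 °C to galactose-induced yeast display cells.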

Sequence	polyreactivity (PSR sort gate)
QVQLVESGGGLVQAGGSLRLSCAASGSTSYRYAMGWYRQAPGKERELVAGITRSGGSTYYADSVKGRFTISRDNAKNTVYLQMNSLKPEDTAVYYCAAYYSRQYVGYGYWGQGTQVTVSS	high polyreactivity
QVQLVESGGGLVQAGGSLRLSCAASGSTSYVYAMGWYRQAPGKERELVAAISNTGNTNYADSVKGRFTISRDNAKNTVYLQMNSLKPEDTAVYYCNADRRGENDWHERDYWGQGTQVTVSS	low polyreactivity
QVQLVESGGGLVQAGGSLRLSCAASGSTVAYYAMGWYRQAPGKERELVAAITIDGRTSYADSVKGRFTISRDNAKNTVYLQMNSLKREDTAVYYCARGYFPYGYPWRWGYDRFDYWGQGTQVTVSS	low polyreactivity
QVQLVESGGGLVQAGGSLRLSCAASGSTVRGYAKGWYRQAPGKERELGAAITWSGGTTYYADSVKGRFTISRDNAKTTVYLQMNSLKPEDTAVYYCAAQNWDSDPYDYWGQATQVTVSS	low polyreactivity
QVQLVESGGGLVQAGGSLRLSCAASGSTVSDNAMGWYRQAPGKERELVAAINWGGSNTYYADSVKGRFTISRDNAKNTVYLQMNSLKPEDTAVYYFNADIPRRTNRHYLYDYWGQGTQVTVSS	low polyreactivity
QVQLVESGGGLVQAGGSLRLSCAASGSTVSSNAMGWFRLAPGQERELVAAIDRGGSTYYADSVKGRFTISRDNAKNTVYLQMNSRKPEDTAVYYCNADYYHLNSGMYYWGQGTQVTVSS	low polyreactivity
QVQLVESGGGLVQAGGSLRLSCAASGSTVVRYGMGSYRQAPGKERELVAVISRSGGSTYYADSVKARFTISRDNAKNTVFLQMNSLKPEDTAVYYCAITRYGNPNSGGVGYWGQGTQVTVSS	high polyreactivity
QVQLVESGGGLVQAGGSLRLSCAASGSTYANAMGWYRQAPGKERELVAAITDNGGRTYYADSVKGRFTISRDNEKNNVYLQMNSLKPEDTAVYYCAARSSVWGQVTQVTVSS	low polyreactivity
QVQLVESGGGLVQAGGSLRLSCAASGSTYDDNAMGWYRQAPRKERELVAGISTNGGSTSYADSVKGRFTISRDNAKNTVYLQMNSLYPEDTAVYYCATGLYVQFDYWGQGTQVTVSS	low polyreactivity
QVQLVESGGGLVQAGGSLRLSCAASGSTYGYAMGWYRQAPGKERELVAAISSSGGRTYYADSVKGRFTISRDNAKNTVYLQMNSLKPEDTAVYYCAAGGFSQHGHGYWGQGTQVTVSS	high polyreactivity
QVQLVESGGGLVQAGGSLRLSCAASGSTYHQYTMGWYRQAPRKERELVSTINNGGITNYADSLKGRFTISRDNAKKTVYLQLISQNPEDTAVYYCAADYSYYGRYGRYDYWGQGTQVTVSS	low polyreactivity
QVQLVESGGGLVQAGGSLRLSCAASGSTYIVYAMGWYRQAPGKERELVAAIRGRGGSTYYADSVKGRFTISRDNAKNTVYLQMNSLKPEVTAVYYCAARGISPLEMYYWGQGTQVTVSS	high polyreactivity
QVQLVESGGGLVQAGGSLRLSCAASGSTYRPYAMGWYRQAPVKERELVAAISWSGGRTYYADSVKGRFTISRDNAKNNVYLPMNSLKPEDTAVYYCNRAGRQPKNTYDYWGQGTQVTVSS	high polyreactivity
QVQLVESGGGLVQAGGSLRLSCAASGSTYSYYTMGWYIQAPGKERELVATISRRGASTYYADSVKGRFTISRDNAKNTVYLQMNSLKPEDTAVYYCAKSYYYGRSATRPEYDYWGQGTQVTVSS	high polyreactivity
QVQLVESGGGLVQAGGSLRLSCAASGSTYTGYTMGWYRQAPGKERELVAAITYRGGSTYYADSVKGRITISRDNAKNTVYLQMNSLKREDTEVYYCAARSFFIMYYWGQGTQVTVSS	low polyreactivity
QVQLVESGGGLVQAGGSLRLSCAASGSTYTHNTMGWYRQAPGKERELVAAISKSGGRTYYADSVKGRFTISRDHAKNTVYLQMNSLKPEVTAVYYCAARVTGVGDYYWGQGTQVTGSS	high polyreactivity
QVQLVESGGGLVQAGGSLRLSCAASGSTYVQYAMGWYRKAPGKERELVPVISYSGGSTYYADSVKGRFTISRDNAKNTVYLQMNSLKPEDTAVYYCAAVYGGGHRKMDYWGQGTQVTVSS	low polyreactivity
QVQLVESGGGLVQAGGSLRLSCAASGSTYYYAMGWSRQAPGKERELVAAISSSSGSTYYADSVKGRFTISRDNAKNTVYLQMNSLKPEDTAVYYCAAEGYKGWVYEYDYWGQGTQVTVSS	low polyreactivity
QVQLVESGGGLVQAGGSLRLSCAASGSYLRYYAMGWYRQAPGKERELVAAISRSGTKTYYADSVKGRFTISRDNAKKTVYLQMNSLKPEDTAVYYCAARGYYRDYDSWGQGTQVTGSS	high polyreactivity
QVQLVESGGGLVQAGGSLRLSCAASGTFERKVMGWYRPAPGKERELVAAISRSGSSTYYADSVKGRFTISRDNAKNTVYLQMNSLKPEDTAVYYCAARGTKQHFNYWGQGTQVTVSS	high polyreactivity
QVQLVESGGGLVQAGGSLRLSCAASGTFFGYALGWYRQAPGKERELVAAITPGGSTYYADSVKGRFTISRDNAKNTVYLQMNSLKPEDTAVYYCARVYSRWSYRYDYWGQGTQVTVSS	low polyreactivity

Sequence	polyreactivity (PSR sort gate)
QVQLVESGGGLVQAGGSLRLSCAASGTFGYYTMGWYRQAPGHERELVAAITRSGGSTYDADSVKGRFTISRDNAKNTVYLQMNSLKPEDTAVYYCATELHAWSSWNRYRAYYYWGQGTQVTVSS	high polyreactivity
QVQLVESGGGLVQAGGSLRLSCAASGTFHWYAMGWYIQAPGKEMELVAAITGSGGNTYYADSVKGRFTISRDNAKNTVYLQMNSLKPEDTAVYYCAARIYTWSVEYTGYGYWGQGTQVTVSS	high polyreactivity
QVQLVESGGGLVQAGGSLRLSCAASGTFNYYAMGWYRQAPGKERELVAAISNGDSTTYADSVKGRFTISRDNAKNTVYLQMNSLKPEDTAVYYCAAYRYTPRTSRGYYYWGQGTQVTVSS	low polyreactivity
QVQLVESGGGLVQAGGSLRLSCAASGTFQVNAMGWYIQAPGKERELVAAINSNGGSTYYADSVKGRFTISRDNAKNTVYLQMNSLKPEDTAVYYCAAVYQRRRSYYWGQGTQVTVSS	high polyreactivity
QVQLVESGGGLVQAGGSLRLSCAASGTFRVYAMGWYRQAPGKERELVAAISRSGTSTYYSDSVKGRFTISRDNAKNTVYLQMNSLKPEDTAVYYCNDVVRGQYDWGQGTQVTVSS	high polyreactivity
QVQLVESGGGLVQAGGSLRLSCAASGTFSPYAIGWYRQAPGKERELVAVITSNTGRTYADSVKGRFTISRDNAKNTVYLQMNSLKPEDTAVYYCAARSTYRHWYRTGSRFDYWGQGTQVTVSS	low polyreactivity
QVQLVESGGGLVQAGGSLRLSCAASGTFVTYMGWYRQAPGKERELVAAIRNGGSTNYADSVKGRFTISRDNAKNTVYLQMNSLKPEDTAVYYCAADRAGSIMNYWGQGTQVTVSS	low polyreactivity
QVQLVESGGGLVQAGGSLRLSCAASGTFVTYMGWYRQSPGKEREMVAAIRNGGSTNYADSVKGRFTISRDNAKNTVYLQMNSLKPEDTAVYYCAARVTYSRGYRGGSRTKYDYWGQGTQVTVSS	low polyreactivity
QVQLVESGGGLVQAGGSLRLSCAASGTFWWYAMGWYRQAPGKERELVASINRGGSTYYADSVKGRFTISRDNANNTVYLQMNSLKPEDTAVYYCNAGWIGRLTPYRRATYNYWGQGTQVTVSS	high polyreactivity
QVQLVESGGGLVQAGGSLRLSCAASGTFYRNAMGWYRQAPGKERELVAAISSGSNTDYADSVKGRFTISRDNAKNTVYLQMNSLKPEDTAVYYCNADRGDLYELRGSGYLDGYWGQGTQVTVSS	low polyreactivity
QVQLVESGGGLVQAGGSLRLSCAASGTFYRYAMGWYRQAPGKERELVAAIDKTGDTTYYADSVKGRFTISRDNAKNTVYLQMNSLKPEDTAVYYCAATGYPRFGYWGQGTQVTVSS	high polyreactivity
QVQLVESGGGLVQAGGSLRLSCAASGTFYTYAMGWYRQAPGKERELVAAINGGGRTYYADSVKGRFTISRDNAKNTVYLQMNSLKPEDTAVYYCAARPRWSPSKYDYWGQGTQVTVSS	high polyreactivity
QVQLVESGGGLVQAGGSLRLSCAASGTFYYYAMGWYRQAPGKERELVAAISNGDSTTYADSVKGRFTISRDNAKNTVYFQMNSLKPEDTAVYYCAAYRYTPRTSRGYYYWGQGTQVTVSS	low polyreactivity
QVQLVESGGGLVQAGGSLRLSCAASGTIFAKYAMGWYRQAPGKERELVAAISRSSVRTRYADSVKGRFTISRDYAKNTVYLQMNSLKPEDTAVYYCNAYYRSYAYSHLDYWGQGTQVTVSS	high polyreactivity
QVQLVESGGGLVQAGGSLRLSCAASGTIFLYYAMGWYRQAPGKERELVAGINRVGSTNYADSVKGRFTISRDNAKNTVYLQMNSLKPEDTAVFYCNKAATRSRSRGYWGQGTQVNVSS	low polyreactivity
QVQLVESGGGLVQAGGSLRLSCAASGTIFQENAMGWYRQAPGKERELVAAITGSGDSTYYADSVKGRFTISRDNAKNTVYLQMNSLKPEDTAVYYCAASWHTPTVYDEYYYWGQGTQVTVSS	low polyreactivity
QVQLVESGGGLVQAGGSLRLSCAASGTIFRWYAMGWYRQARGKEREFVAAITSSGGSTYYADSVKGRFTISRDNAKNTVYLQMNSLKPEDTAVYYCAARGWTANYEMDHWGQGTQVTVSS	high polyreactivity
QVQLVESGGGLVQAGGSLRLSCAASGTIFVAYDMGWYRQAPGKERELVAAINFDGTSTYYADSVKGRFTISRDNAKNTVYLQMNSLKPEDTAVYYCNKRVSPTYKGQYDYWGQGTQVTVSS	low polyreactivity
QVQLVESGGGLVQAGGSLRLSCAASGTLSSYAMGWYRQAPGKERELVAAISLSGGSTYADSVKGRFTISRDNAKKSVYLQMNSLKPEDTAVYYCAKDWDVEITWSFSIYNYWGQGTHVTVSS	low polyreactivity
QVQLVESGGGLVQAGGSLRLSCAASGTNVKGWYRQAPGKERELVAAISGSGGSTYYADSVKGRFTISRDNAKNTVYLQMNSLKPEDTAVYYCAADSIQYTARPYDYWGQVTQVTVSS	low polyreactivity

Reference: the nanobody polyreactivity screen of Harvey et al. (2022)
